Experimental findings from article PMC6155126 are described below.

In one experiment the target is FLAG-PAXX (human) (UniProt Q9BUH6). Description: affinity purification with mass spectrometry; anti-FLAG IP of FLAG-PAXX, -XLF, -XRCC4, -DNA-PKcs (stable) or FLAG-Pol λ (transient) from nucleoplasmic and benzonase-treated soluble chromatin fractions of HEK293F cells; FLAG peptide elution; LC-MS/MS.
In another experiment the target is FLAG-Pol λ-WT (human) (UniProt Q9UGP5).
FLAG-Pol λ-WT (human), sequence (Q9UGP5 whole entry): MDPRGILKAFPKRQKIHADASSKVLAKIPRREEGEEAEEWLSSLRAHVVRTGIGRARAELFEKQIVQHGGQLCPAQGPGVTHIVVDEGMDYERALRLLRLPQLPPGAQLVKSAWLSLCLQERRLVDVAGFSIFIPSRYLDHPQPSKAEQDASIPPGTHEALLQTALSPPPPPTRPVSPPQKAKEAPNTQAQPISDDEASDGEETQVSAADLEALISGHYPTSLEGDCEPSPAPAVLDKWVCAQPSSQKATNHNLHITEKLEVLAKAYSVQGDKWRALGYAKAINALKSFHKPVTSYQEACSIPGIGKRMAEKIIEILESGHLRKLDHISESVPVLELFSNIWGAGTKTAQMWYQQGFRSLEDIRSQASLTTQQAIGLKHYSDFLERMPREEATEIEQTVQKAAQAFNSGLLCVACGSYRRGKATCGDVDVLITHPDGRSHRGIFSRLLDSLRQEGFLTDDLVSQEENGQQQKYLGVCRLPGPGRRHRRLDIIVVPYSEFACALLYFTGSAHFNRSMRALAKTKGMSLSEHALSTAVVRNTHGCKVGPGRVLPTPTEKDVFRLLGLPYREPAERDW

In the case of “DNA-PK holoenzyme (endogenous) (from UniProt P78527 1-4128; P12956 1-609; P13010 1-732) (complex)”, the stoichiometry N – broadly, a count of units in the complex or per binding partner – in the experiment with FLAG-PAXX (human) was 1 to 1.5.

“FLAG-PAXX (from UniProt Q9BUH6 1-204) (natural protein)” returned a Pol λ-dependent gap filling synthesis on a 5nt-gapped dsDNA (33-mer), stimulation by added protein over a concentration series with FLAG-Pol λ-WT (human) of less than 10 fold.
